Source: publication PMC4912631, “Structure of the exportin Xpo4 in complex with RanGTP and the hypusine-containing translation factor eIF5A” (Nature Communications, 2016)

B1: eIF5A truncated (14 N-terminal residues deleted), hypusinated (domain or fragment)
chain: not shown
modifications: hypusine (N-ɛ-(4-amino-2-hydroxybutyl)-lysine) at 50
B2: Xpo4 wild type (natural protein)
chain: not shown
B3: Xpo4 D470N (natural protein)
chain: not shown
B4: Xpo4 E537Q (natural protein)
chain: not shown
B5: Xpo4 S631A (natural protein)
chain: not shown
B6: eIF5A, full-length, hypusinated (natural protein)
chain: not shown
modifications: hypusine (N-ɛ-(4-amino-2-hydroxybutyl)-lysine) at 50
notes: eIF5A, mammalian; lysine 50 in human numbering carries the hypusine; In the nuclear export assay this protein carried an Alexa568 label; also called eIF5A(Hpu); hypusinated eIF5A; source: E. coli NEB Express, purified; hypusinated in vitro by recombinant deoxyhypusine synthase and deoxyhypusine hydroxylase; eluted from anti-ZZ matrix by bdSENP1; cation exchange; not shown: His14, N-terminal, …

Legend:
Conditions in all cases: both partners purified
[1] = molecular target: T1, Xpo4 ΔLoopN&C ( (mammalian), UniProt Q9ESJ0 1-1151, Δ241–260 | Δ931–948); experiment: SEC; complexes of Xpo4 variants, RanGTP and a 1.3-molar excess of hypusine-containing eIF5A, retrieved on anti-ZZ beads via tagged RanGTP, eluted by bdSENP1, then Superdex 200 16/60 in 15 mM Tris/HCl pH 7.7, 18 mM NaCl, 2 mM Mg(OAc)2, 2 mM DTT; peak fractions on SDS-PAGE
T1 construct: Xpo4 (exportin 4), mammalian, with loops 241-260 and 931-948 deleted; 1,113 residues printed; Crystallised form; 1,052 of 1,113 residues are modelled in PDB 5DLQ; also called ΔLoopN&C Xpo4 variant; Xpo4 loop deletion mutant; source: E. coli Top10 F', purified (Ni(II) chelate, bdSENP1 elution, Superdex 200, Mono Q); selenomethionine form from BL21; not shown: His14, N-terminal, cleaved; bdSUMO, …

[2] = molecular target: B2; experiment: as above
[3] = molecular target: ZZ-bdNEDD8-tagged RanGTP ( (mammalian), UniProt P62826 5-180, Q69L); experiment: pull-down; 1 μM Xpo4 wild type or mutants, 0.75 μM ZZ-bdNEDD8-tagged RanGTP, 1.25 μM hypusinated eIF5A, 100 mM NaCl buffer; retrieved via tagged Ran; eluted by bdNEDP1 protease; SDS-PAGE, Coomassie
[4] = molecular target: RanQ69L (aa 5–180), GTP-bound, untagged ( (mammalian), UniProt P62826 5-180, Q69L); experiment: SEC; complexes of Xpo4 variants, RanGTP and a 1.3-molar excess of hypusine-containing eIF5A, retrieved on anti-ZZ beads via tagged RanGTP, eluted by bdSENP1, then Superdex 200 16/60 in 15 mM Tris/HCl pH 7.7, 18 mM NaCl, 2 mM Mg(OAc)2, 2 mM DTT; peak fractions on SDS-PAGE
[5] = molecular target: B2; experiment: pull-down; export complexes formed with Xpo4, eIF5A (full-length or truncated) and ZZ-bdNEDD8-tagged RanGTP; immobilised via tagged Ran; eluted by bdNEDP1 protease; SDS-PAGE, Coomassie

Xpo4 wild type, sequence (Q9ESJ0 whole entry, the tested form may be a part): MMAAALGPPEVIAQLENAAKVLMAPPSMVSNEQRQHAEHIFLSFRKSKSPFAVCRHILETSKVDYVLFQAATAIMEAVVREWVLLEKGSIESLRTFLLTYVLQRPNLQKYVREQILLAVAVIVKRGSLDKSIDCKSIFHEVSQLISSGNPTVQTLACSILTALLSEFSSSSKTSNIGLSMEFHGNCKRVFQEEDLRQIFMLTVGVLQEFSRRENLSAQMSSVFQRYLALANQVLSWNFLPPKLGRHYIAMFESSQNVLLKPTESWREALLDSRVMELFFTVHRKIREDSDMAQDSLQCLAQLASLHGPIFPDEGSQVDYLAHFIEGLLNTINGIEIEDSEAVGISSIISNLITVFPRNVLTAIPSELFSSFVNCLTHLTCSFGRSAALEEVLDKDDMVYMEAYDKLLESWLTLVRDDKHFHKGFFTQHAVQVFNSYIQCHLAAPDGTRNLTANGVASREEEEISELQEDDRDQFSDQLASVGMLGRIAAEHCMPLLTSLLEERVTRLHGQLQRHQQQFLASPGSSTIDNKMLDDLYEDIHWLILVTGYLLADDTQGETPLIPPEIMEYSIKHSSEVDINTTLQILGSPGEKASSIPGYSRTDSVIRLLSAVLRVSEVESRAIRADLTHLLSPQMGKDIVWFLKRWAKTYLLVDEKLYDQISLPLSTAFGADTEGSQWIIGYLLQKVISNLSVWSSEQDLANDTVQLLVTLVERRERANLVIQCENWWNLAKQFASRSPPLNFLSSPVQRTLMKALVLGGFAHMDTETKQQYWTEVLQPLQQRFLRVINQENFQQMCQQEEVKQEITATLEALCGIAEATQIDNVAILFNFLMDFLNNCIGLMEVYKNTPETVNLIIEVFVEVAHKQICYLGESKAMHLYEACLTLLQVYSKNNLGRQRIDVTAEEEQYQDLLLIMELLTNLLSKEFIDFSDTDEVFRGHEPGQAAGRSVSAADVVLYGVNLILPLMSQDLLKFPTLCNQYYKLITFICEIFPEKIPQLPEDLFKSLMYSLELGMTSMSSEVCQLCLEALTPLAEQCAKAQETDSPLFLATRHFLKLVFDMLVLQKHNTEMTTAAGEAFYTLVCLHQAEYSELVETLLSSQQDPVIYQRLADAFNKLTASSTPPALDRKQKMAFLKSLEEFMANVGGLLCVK
T1 sequence (Q9ESJ0 other isoform, or with tags, fused parts or gaps Δ241–260 | Δ931–948 | Δ241–260 | Δ931–948 | mutant): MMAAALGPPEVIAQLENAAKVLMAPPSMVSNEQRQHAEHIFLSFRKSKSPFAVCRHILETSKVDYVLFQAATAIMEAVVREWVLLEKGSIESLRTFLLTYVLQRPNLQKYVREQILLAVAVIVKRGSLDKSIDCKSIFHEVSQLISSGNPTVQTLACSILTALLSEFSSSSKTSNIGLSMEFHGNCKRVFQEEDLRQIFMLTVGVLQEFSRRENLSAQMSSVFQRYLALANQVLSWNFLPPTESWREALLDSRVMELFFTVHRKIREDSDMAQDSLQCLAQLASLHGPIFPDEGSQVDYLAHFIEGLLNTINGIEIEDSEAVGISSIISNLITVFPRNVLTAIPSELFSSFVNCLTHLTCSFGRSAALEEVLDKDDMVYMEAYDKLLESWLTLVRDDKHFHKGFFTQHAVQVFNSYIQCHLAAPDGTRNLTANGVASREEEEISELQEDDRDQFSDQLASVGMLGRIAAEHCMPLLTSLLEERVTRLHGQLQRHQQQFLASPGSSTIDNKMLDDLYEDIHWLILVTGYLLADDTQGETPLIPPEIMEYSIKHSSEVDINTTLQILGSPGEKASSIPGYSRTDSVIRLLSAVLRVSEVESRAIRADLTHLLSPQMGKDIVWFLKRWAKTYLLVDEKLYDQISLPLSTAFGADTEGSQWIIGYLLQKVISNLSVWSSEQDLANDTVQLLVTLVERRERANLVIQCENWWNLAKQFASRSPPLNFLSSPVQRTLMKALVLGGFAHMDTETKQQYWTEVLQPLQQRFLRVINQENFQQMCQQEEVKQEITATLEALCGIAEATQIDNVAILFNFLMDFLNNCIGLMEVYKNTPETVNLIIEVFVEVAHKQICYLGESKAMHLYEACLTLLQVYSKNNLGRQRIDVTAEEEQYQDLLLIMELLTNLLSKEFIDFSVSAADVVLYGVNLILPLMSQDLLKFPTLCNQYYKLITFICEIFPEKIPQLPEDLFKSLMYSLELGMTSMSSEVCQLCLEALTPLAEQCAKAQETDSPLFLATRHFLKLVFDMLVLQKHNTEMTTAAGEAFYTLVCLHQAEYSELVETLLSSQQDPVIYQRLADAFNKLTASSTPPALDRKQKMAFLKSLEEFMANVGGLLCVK

binding result [3] | Binder | other results
 | B1 | binding result [1]: binds; binding result [2]: binds
binds | B2 | binding result [4]: binds
binds | B3 | 
binds | B4 | 
binds | B5 | 
 | B6 | binding result [5]: binds
